koff and Kd data for three molecules are collected here from PMC6030200 (2018).

What all share (assay): SPR
Test [1] concerns the target T1, recombinant human integrin α6β4 (human, UniProt P23229;P16144).
T1 chain 1: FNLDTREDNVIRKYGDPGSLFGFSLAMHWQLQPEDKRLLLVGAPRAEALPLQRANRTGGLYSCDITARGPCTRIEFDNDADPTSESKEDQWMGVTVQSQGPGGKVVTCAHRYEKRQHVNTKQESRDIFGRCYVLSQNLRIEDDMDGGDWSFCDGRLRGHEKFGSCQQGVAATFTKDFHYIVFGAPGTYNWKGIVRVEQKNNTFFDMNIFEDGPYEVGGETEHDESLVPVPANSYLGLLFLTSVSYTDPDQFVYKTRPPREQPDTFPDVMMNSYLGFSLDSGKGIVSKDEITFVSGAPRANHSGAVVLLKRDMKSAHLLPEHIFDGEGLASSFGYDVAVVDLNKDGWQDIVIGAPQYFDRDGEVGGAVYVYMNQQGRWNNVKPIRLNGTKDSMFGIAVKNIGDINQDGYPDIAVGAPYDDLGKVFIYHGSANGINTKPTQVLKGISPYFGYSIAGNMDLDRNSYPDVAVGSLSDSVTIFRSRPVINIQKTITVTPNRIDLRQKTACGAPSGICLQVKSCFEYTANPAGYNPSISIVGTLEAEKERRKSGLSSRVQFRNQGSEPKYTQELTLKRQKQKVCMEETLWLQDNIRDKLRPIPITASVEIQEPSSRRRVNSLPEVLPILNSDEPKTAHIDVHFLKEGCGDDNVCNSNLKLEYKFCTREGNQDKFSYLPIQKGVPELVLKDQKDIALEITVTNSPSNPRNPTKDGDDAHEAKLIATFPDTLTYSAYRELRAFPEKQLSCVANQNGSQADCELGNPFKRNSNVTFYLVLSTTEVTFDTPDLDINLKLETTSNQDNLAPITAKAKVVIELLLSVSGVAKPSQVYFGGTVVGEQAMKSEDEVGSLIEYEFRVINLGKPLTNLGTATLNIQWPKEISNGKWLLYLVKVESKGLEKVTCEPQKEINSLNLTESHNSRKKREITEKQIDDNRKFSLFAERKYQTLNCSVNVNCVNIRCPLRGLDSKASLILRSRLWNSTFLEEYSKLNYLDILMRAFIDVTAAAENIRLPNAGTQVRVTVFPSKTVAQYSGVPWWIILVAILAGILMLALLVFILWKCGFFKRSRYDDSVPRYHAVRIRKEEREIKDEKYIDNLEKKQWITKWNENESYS
T1 chain 2: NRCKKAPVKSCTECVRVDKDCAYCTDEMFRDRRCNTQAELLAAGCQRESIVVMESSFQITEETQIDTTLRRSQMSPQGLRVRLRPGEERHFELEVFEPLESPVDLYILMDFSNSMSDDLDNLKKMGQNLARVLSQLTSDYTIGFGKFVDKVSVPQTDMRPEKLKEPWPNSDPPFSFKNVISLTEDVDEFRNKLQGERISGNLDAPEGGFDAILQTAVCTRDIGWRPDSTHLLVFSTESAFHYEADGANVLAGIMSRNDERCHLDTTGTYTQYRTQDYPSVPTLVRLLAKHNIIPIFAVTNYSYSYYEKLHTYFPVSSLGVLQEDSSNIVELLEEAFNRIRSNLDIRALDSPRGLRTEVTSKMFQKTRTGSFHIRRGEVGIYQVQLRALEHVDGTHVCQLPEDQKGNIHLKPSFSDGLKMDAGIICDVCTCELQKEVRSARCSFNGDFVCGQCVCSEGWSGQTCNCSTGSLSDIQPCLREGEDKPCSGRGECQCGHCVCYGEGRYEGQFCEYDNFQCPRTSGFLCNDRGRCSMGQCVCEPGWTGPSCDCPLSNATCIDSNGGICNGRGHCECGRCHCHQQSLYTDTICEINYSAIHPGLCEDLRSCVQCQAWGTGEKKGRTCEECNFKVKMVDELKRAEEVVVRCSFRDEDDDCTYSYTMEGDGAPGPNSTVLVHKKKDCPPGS

Test [2] addresses T2, recombinant human integrin α6β1 (human, UniProt P23229;P05556).
For test [3], the target named is T1, recombinant human integrin α6β4.
The target in test [4] is T2, recombinant human integrin α6β1. The source holds these as a separate data set.

B1: HAdV-5 penton base protein, recombinant, soluble (natural protein)
chain: MRRAAMYEEGPPPSYESVVSAAPVAAALGSPFDAPLDPPFVPPRYLRPTGGRNSIRYSELAPLFDTTRVYLVDNKSTDVASLNYQNDHSNFLTTVIQNNDYSPGEASTQTINLDDRSHWGGDLKTILHTNMPNVNEFMFTNKFKARVMVSRLPTKDNQVELKYEWVEFTLPEGNYSETMTIDLMNNAIVEHYLKVGRQNGVLESDIGVKFDTRNFRLGFDPVTGLVMPGVYTNEAFHPDIILLPGCGVDFTHSRLSNLLGIRKRQPFQEGFRITYDDLEGGNIPALLDVDAYQASLKDDTEQGGGGAGGSNSSGSGAEENSNAAAAAMQPVEDMNDHAIRGDTFATRAEEKRAEAEAAAEAAAPAAQPEVEKPQKKPVIKPLTEDSKKRSYNLISNDSTFTQYRSWYLAYNYGDPQTGIRSWTLLCTPDVTCGSEQVYWSLPDMMQDPVTFRSTRQISNFPVVGAELLPVHSKSFYNDQAVYSQLIRQFTSLTHVFNRFPENQILARPPAPTITTVSENVPALTDHGTLPLRNSIGGVQRVTITDARRRTCPYVYKALGIVSPRVLSSRTF
B1: the koff in test [1] came to 0.0045 s⁻¹; in test [2], 0.0059 s⁻¹. Besides, the Kd in test [3] came out at 95 nM; in test [4], 1560 nM.

B2: HAdV-40 penton base protein, recombinant, soluble (natural protein)
chain: MRRAVGVPPVMAYAEGPPPSYESVMETADLPATLQALHVPPRYLGPTEGRNSIRYSELAPLYDTTRVYLVDNKSADIASLNYQNDHSNFQTTVVQNNDFTPTEAGTQTINFDDRSRWGGDLKTILRTNMPNINEFMSTNKFRARVMVEKVNRKTNAPRYEWFEFTLPEGNYSETMTIDLMNNAIVDNYLAVGRQNGVLESDIGVKFDTRNFRLGWDPVTKLVMPGVYTNEAFHPDIVLLPGCGVDFTQSRLNNLLGIRKRMPFQKGFQIMYEDLEGGNIPALLDVEKYEASIKEAQEIRGADFKPNPQDLEIVPVEKDSKERSYNLLEGDKNNTAYRSWFLAYNYGDAEKGVKSWTLLTTTDVTCGSQQVYWSLPDMMQDPVTFRPSTQVSNYPVVGVELLPVHAKSFYNEQAVYSQLIRQSTALTHIFNRFPENQILVRPPAPTITTVSENVPALTDHGTLPLRSSISGVQRVTITDARRRTCPYVHKALGIVAPKVLSSRTF
As to B2, in test [1], the dissociation rate constant (koff) was determined as 0.0049 s⁻¹. The equilibrium dissociation constant (Kd) in test [3] is 32.7 nM; in test [4], 426 nM.

B3: HAdV-41 penton base protein, recombinant, soluble (natural protein)
chain: MRRAVGVPPVMAYAEGPPPSYESVMGSADSPATLEALYVPPRYLGPTEGRNSIRYSELAPLYDTTRVYLVDNKSADIASLNYQNDHSNFQTTVVQNNDFTPAEAGTQTINFDERSRWGADLKTILRTNMPNINEFMSTNKFKARLMVEKKNKETGLPRYEWFEFTLPEGNYSETMTIDLMNNAIVDNYLEVGRQNGVLESDIGVKFDTRNFRLGWDPVTKLVMPGVYTNEAFHPDIVLLPGCGVDFTQSRLSNLLGIRKRLPFQEGFQIMYEDLEGGNIPALLDVAKYEASIQKAKEEGKEIGDDTFATRPQDLVIEPVAKDSKNRSYNLLPNDQNNTAYRSWFLAYNYGDPKKGVQSWTLLTTADVTCGSQQVYWSLPDMMQDPVTFRPSTQVSNYPVVGVELLPVHAKSFYNEQAVYSQLIRQSTALTHVFNRFPENQILVRPPAPTITTVSENVPALTDHGTLPLRSSISGVQRVTITDARRRTCPYVHKALGIVAPKVLSSRTF
Consider B3, for which the koff in test [1] was found to be 0.022 s⁻¹; in test [2], 0.011 s⁻¹. Moreover, the Kd is 41.2 nM in test [3] and 473 nM in test [4].
